What was measured:
S100A9 (human) = biological target: T1, S100A9 (human) (UniProt P06702); test: cell-based or functional assay
T1 sequence (looked up): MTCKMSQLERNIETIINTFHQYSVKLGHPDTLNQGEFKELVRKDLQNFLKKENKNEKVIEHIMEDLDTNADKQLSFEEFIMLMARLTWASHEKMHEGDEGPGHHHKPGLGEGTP

[1] = biological target: apoptosis-associated speck-like protein containing a caspase-recruitment domain (ASC) (human) (UniProt Q9ULZ3); test: cell-based or functional assay
apoptosis-associated speck-like protein containing a caspase-recruitment domain (ASC) (human), sequence (Q9ULZ3 whole entry, the tested form may be a part): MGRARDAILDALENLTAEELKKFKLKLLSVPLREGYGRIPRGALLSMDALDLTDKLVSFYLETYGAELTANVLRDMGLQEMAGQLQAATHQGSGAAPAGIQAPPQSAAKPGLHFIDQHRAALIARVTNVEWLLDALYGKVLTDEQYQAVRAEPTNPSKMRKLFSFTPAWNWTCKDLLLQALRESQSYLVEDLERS

S100A9 high-affinity chimeric (CD33-IgG1) decoy receptor (from UniProt P20138 18-259) (Fc fusion)
colony-forming capacity of MDS BM-MNC (S100A9 (human)): < 6.6 fold
reduction of the fraction of pyroptotic cells, CD33+ cells (MDS BM-MNC in autologous BM plasma) (S100A9 (human)): 68%
reduction of the fraction of pyroptotic cells, CD71+ cells (MDS BM-MNC in autologous BM plasma) (S100A9 (human)): 64%
reduction of the fraction of pyroptotic cells, progenitor cells (MDS BM-MNC in autologous BM plasma) (S100A9 (human)): 23%
reduction of the fraction of pyroptotic cells, stem cells (MDS BM-MNC in autologous BM plasma) (S100A9 (human)): 44%

B1: pyrin domain-only protein (POP)-1 (protein, UniProt Q8WXC3 1-89, looked up)
chain: MGTKREAILKVLENLTPEELKKFKMKLGTVPLREGFERIPRGALGQLDIVDLTDKLVASYYEDYAAELVVAVLRDMRMLEEAARLQRAA
NLRP3 activation, as measured by ASC oligomerization (flow cytometry, U2AF1-S34F cells transfected with POP-1) [1]: 40 % reduction

Reference: US20180050011A1
